Laboratory results taken from article PMC4162405 (Cell reports, 2014).

T1: purified human PALB2 (Partner and localizer of BRCA2) (human, UniProt Q86YC2 1-1186)
T1 sequence (looked up): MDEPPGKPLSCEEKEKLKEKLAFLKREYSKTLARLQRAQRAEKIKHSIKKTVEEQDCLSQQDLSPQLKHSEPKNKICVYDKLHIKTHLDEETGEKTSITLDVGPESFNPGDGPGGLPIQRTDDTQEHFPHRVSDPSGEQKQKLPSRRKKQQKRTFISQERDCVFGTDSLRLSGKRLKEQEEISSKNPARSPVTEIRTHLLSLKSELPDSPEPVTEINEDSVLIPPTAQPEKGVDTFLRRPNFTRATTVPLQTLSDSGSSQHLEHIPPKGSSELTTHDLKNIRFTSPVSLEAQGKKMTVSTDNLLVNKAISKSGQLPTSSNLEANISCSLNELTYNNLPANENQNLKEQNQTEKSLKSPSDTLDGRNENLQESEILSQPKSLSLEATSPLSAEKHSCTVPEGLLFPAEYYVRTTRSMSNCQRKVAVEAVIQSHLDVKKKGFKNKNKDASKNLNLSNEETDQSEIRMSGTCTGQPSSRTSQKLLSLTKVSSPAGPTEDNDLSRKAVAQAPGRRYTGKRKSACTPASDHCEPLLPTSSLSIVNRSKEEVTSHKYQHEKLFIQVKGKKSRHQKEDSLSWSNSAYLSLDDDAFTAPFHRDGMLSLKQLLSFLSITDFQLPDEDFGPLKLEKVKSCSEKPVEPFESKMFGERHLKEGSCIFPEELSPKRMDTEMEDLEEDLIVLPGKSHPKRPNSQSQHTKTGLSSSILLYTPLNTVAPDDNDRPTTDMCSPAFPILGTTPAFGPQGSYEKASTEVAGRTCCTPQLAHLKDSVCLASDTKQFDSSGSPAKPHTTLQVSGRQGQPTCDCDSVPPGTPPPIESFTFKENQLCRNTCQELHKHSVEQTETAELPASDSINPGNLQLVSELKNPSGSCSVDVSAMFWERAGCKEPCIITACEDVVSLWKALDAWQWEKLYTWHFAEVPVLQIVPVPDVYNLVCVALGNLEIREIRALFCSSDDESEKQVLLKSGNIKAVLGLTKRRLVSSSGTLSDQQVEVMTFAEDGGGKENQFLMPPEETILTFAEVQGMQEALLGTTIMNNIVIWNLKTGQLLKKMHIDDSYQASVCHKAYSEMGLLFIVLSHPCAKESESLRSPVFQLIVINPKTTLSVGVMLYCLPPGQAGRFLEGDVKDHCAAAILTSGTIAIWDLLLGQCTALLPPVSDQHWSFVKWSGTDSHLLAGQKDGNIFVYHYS

B1: Polymerase eta (Polη), purified human (enzyme, UniProt Q9Y253 1-713, looked up)
chain: MATGQDRVVALVDMDCFFVQVEQRQNPHLRNKPCAVVQYKSWKGGGIIAVSYEARAFGVTRSMWADDAKKLCPDLLLAQVRESRGKANLTKYREASVEVMEIMSRFAVIERASIDEAYVDLTSAVQERLQKLQGQPISADLLPSTYIEGLPQGPTTAEETVQKEGMRKQGLFQWLDSLQIDNLTSPDLQLTVGAVIVEEMRAAIERETGFQCSAGISHNKVLAKLACGLNKPNRQTLVSHGSVPQLFSQMPIRKIRSLGGKLGASVIEILGIEYMGELTQFTESQLQSHFGEKNGSWLYAMCRGIEHDPVKPRQLPKTIGCSKNFPGKTALATREQVQWWLLQLAQELEERLTKDRNDNDRVATQLVVSIRVQGDKRLSSLRRCCALTRYDAHKMSHDAFTVIKNCNTSGIQTEWSPPLTMLFLCATKFSASAPSSSTDITSFLSSDPSSLPKVPVTSSEAKTQGSGPAVTATKKATTSLESFFQKAAERQKVKEASLSSLTAPTQAPMSNSPSKPSLPFQTSQSTGTEPFFKQKSLLLKQKQLNNSSVSSPQQNPWSNCKALPNSLPTEYPGCVPVCEGVSKLEESSKATPAEMDLAHNSQSMHASSASKSVLEVTQKATPNPSLLAAEDQVPCEKCGSLVPVWDMPEHMDYHFALELQKSFLQPHSSNPQVVSAVSHQGKRNPKSPLACTNKRPRPEGMQTLESFFKPLTH
B2: GST-PALB2 WD40 domain (residues 853–1186) (domain or fragment, human, UniProt Q86YC2 853-1186, looked up)
chain: GNLQLVSELKNPSGSCSVDVSAMFWERAGCKEPCIITACEDVVSLWKALDAWQWEKLYTWHFAEVPVLQIVPVPDVYNLVCVALGNLEIREIRALFCSSDDESEKQVLLKSGNIKAVLGLTKRRLVSSSGTLSDQQVEVMTFAEDGGGKENQFLMPPEETILTFAEVQGMQEALLGTTIMNNIVIWNLKTGQLLKKMHIDDSYQASVCHKAYSEMGLLFIVLSHPCAKESESLRSPVFQLIVINPKTTLSVGVMLYCLPPGQAGRFLEGDVKDHCAAAILTSGTIAIWDLLLGQCTALLPPVSDQHWSFVKWSGTDSHLLAGQKDGNIFVYHYS
B3: GST-BRCA2 truncation 4 (residues 1338–1781) (domain or fragment, human, UniProt P51587 1338-1781, looked up)
chain: GSDSSKNDTVCIHKDETDLLFTDQHNICLKLSGQFMKEGNTQIKEDLSDLTFLEVAKAQEACHGNTSNKEQLTATKTEQNIKDFETSDTFFQTASGKNISVAKESFNKIVNFFDQKPEELHNFSLNSELHSDIRKNKMDILSYEETDIVKHKILKESVPVGTGNQLVTFQGQPERDEKIKEPTLLGFHTASGKKVKIAKESLDKVKNLFDEKEQGTSEITSFSHQWAKTLKYREACKDLELACETIEITAAPKCKEMQNSLNNDKNLVSIETVVPPKLLSDNLCRQTENLKTSKSIFLKVKVHENVEKETAKSPATCYTNQSPYSVIENSALAFYTSCSRKTSVSQTSLLEAKKWLREGIFDGQPERINTADYVGNYLYENNSNSTIAENDKNHLSEKQDTYLSNSSMSNSYSYHSDEVYNDSGYLSKNKLDSGIEPVLKNVED

How the values were obtained:
[1] = biological target: T1, purified human PALB2 (Partner and …); assay: co-IP
[2] = biological target: B1; assay: pull-down
[3] = biological target: B1; assay: co-IP

Binder: B1
binding result [1]: binds

Binder: B2
binding result [2]: binds

Binder: B3
binding result [3]: binds
